{
  "source": "paper PMC5674887",
  "key": {"[1]": {"molecular_target": "cNup62 (cysteine-tagged FG domain of human Nup62) (human) (UniProt P37198)", "sequence (P37198 whole entry, the tested form may be a part)": "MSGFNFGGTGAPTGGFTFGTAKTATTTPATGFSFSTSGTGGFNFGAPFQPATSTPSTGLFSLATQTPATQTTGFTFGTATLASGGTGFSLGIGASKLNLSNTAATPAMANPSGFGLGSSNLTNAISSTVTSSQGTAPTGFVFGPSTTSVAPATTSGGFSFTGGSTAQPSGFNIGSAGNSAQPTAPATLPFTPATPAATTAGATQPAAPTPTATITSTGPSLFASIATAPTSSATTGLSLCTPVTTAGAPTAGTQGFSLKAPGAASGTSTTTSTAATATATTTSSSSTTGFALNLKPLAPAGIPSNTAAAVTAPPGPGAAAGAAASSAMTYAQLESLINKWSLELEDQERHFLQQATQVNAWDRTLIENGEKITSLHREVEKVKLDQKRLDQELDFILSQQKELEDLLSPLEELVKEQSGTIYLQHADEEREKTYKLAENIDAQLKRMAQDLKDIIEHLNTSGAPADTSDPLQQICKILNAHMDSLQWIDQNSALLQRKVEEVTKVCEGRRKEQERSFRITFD", "assay": "SPR"}, "[2]": {"molecular_target": "cNup153 (cysteine-tagged FG domain of human Nup153) (human) (UniProt P49790)", "sequence (P49790 whole entry, the tested form may be a part)": "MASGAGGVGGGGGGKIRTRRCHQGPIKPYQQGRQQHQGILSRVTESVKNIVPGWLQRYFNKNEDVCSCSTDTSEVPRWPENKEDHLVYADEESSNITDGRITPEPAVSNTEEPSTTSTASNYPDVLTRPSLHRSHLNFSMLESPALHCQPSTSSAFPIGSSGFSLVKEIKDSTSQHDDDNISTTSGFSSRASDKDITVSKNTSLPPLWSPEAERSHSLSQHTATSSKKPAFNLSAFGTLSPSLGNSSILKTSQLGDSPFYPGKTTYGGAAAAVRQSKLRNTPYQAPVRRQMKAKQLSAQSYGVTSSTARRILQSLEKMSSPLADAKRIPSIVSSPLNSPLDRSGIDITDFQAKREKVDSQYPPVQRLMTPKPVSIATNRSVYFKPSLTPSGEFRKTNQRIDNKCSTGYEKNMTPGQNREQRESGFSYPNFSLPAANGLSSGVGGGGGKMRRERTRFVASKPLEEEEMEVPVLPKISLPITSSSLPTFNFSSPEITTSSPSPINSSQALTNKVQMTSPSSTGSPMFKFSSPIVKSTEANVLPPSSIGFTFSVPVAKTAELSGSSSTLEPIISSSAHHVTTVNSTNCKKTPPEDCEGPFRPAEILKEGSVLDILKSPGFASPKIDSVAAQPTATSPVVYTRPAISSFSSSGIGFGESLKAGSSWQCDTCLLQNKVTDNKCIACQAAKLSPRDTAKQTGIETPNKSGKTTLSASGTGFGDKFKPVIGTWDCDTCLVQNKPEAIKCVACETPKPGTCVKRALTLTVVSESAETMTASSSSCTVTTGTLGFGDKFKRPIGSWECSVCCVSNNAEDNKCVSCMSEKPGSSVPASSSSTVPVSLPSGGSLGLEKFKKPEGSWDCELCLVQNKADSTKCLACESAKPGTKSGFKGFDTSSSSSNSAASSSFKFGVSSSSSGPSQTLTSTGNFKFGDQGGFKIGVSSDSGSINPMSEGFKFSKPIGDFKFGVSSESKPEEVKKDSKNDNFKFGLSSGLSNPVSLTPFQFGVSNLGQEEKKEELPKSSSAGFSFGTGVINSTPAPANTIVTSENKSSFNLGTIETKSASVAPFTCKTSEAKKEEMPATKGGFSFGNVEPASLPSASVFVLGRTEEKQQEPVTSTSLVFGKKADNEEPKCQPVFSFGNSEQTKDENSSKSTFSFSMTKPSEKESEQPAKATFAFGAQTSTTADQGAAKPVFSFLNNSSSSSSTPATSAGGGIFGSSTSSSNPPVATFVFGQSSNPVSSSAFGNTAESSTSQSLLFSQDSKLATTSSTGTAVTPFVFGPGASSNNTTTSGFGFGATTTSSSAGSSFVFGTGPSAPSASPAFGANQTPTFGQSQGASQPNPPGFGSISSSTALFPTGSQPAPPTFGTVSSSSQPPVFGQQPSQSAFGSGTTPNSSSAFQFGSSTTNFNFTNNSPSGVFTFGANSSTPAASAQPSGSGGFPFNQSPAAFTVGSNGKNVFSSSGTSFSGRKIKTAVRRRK", "assay": "SPR"}, "[3]": {"molecular_target": "cNup98 (cysteine-tagged FG domain of human Nup98) (human) (UniProt P52948)", "sequence (P52948 whole entry, the tested form may be a part)": "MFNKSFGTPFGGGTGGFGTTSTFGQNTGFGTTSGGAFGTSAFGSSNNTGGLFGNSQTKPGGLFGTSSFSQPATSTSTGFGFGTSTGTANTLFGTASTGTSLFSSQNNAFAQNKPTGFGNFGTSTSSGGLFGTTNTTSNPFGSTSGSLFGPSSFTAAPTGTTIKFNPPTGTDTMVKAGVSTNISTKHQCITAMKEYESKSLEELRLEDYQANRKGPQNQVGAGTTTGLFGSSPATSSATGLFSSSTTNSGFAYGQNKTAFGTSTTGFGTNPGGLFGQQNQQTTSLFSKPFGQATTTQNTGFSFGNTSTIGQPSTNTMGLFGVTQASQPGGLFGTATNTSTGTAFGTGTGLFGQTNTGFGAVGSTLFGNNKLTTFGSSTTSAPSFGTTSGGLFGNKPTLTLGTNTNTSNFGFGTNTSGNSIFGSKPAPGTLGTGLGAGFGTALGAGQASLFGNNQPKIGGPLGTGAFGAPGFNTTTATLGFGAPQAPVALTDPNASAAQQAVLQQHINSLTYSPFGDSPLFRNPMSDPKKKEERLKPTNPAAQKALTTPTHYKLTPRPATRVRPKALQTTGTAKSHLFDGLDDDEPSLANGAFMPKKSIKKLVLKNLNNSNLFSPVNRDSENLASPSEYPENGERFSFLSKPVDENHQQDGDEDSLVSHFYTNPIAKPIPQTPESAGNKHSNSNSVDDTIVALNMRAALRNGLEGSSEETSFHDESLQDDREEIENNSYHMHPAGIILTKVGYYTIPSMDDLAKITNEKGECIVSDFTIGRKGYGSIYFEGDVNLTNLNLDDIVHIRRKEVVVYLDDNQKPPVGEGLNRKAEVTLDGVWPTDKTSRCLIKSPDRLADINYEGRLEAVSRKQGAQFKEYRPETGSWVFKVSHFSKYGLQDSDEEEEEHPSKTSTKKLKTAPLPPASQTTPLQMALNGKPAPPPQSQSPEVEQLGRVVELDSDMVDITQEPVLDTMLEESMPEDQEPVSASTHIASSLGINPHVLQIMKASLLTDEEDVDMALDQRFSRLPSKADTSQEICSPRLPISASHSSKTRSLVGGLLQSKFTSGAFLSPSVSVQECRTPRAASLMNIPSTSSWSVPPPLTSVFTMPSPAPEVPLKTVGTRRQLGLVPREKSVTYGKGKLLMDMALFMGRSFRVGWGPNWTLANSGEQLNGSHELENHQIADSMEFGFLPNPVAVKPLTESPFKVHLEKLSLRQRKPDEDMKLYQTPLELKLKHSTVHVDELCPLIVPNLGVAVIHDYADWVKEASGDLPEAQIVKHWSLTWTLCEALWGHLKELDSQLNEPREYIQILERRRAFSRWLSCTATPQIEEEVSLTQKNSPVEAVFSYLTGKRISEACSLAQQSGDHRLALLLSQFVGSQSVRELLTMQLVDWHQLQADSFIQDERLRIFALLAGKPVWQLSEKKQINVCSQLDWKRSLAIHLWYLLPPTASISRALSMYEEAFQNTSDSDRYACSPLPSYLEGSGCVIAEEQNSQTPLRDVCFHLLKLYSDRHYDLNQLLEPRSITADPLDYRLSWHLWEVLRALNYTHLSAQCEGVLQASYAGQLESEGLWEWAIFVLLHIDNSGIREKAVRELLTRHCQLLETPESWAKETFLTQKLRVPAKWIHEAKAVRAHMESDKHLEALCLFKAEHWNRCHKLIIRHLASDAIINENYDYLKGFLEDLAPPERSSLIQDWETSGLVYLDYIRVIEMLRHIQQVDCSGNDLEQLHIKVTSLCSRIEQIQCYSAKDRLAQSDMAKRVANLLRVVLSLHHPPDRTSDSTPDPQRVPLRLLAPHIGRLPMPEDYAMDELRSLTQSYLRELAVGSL", "assay": "SPR"}, "[4]": {"molecular_target": "cNup214 (cysteine-tagged FG domain of human Nup214) (human) (UniProt P35658)", "assay": "SPR"}, "karyopherinβ1 (human)": {"molecular_target": "karyopherinβ1 (human) (UniProt Q14974)", "sequence (Q14974 whole entry)": "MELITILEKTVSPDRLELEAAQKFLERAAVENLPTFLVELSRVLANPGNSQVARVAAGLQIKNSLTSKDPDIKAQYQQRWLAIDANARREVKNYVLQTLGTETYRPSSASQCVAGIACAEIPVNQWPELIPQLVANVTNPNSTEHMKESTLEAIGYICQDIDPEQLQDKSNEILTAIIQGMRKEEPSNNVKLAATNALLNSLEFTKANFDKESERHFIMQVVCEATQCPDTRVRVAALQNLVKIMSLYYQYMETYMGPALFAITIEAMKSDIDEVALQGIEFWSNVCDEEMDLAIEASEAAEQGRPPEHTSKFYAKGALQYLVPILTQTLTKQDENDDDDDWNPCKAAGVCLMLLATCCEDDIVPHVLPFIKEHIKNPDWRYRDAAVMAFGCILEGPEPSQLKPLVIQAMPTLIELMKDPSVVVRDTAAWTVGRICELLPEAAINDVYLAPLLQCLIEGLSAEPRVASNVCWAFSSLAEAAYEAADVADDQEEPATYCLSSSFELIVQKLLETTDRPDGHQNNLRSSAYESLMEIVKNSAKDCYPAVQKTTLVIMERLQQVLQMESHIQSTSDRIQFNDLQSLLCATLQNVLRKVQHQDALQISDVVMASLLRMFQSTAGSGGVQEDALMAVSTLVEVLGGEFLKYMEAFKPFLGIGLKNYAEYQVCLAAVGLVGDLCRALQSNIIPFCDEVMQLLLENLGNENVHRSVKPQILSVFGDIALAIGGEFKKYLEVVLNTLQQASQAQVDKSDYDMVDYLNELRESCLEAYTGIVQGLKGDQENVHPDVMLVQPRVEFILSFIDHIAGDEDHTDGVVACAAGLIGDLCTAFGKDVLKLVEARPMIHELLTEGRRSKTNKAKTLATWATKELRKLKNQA", "assay": "ITC"}},
  "note": "pKd: −log10 of the molar value.",
  "data": [
    {"substance": "Kapα·Kapβ1 (from UniProt P52292;Q14974) (complex)", "values": [
      {"measurement": "fold higher affinity than Kapβ1 and RanGTP·Kapβ1 (strong binding phase)", "setting": "[1]", "value": 10, "unit": "fold"},
      {"measurement": "fold higher affinity than Kapβ1 and RanGTP·Kapβ1 (strong binding phase)", "setting": "[2]", "value": 10, "unit": "fold"},
      {"measurement": "fold higher affinity than Kapβ1 and RanGTP·Kapβ1 (strong binding phase)", "setting": "[3]", "value": 10, "unit": "fold"},
      {"measurement": "fold higher affinity than Kapβ1 and RanGTP·Kapβ1 (strong binding phase)", "setting": "[4]", "value": 10, "unit": "fold"}
    ]},
    {"substance": "RanGTP (from UniProt P62826 1-216) (natural protein)", "values": [
      {"measurement": "pKd", "setting": "karyopherinβ1 (human)", "value": 7.46}
    ]},
    {"substance": "karyopherinα (from UniProt P52292 1-529) (natural protein)", "values": [
      {"measurement": "pKd", "setting": "[2]", "value": 5.89},
      {"measurement": "pKd", "setting": "karyopherinβ1 (human)", "value": 6.68}
    ]}
  ]
}
